Measured values taken from US20250154283A1 (published 2025).

T1: biotinylated human VWF cysteine knot (CK) domain construct (human, biotin on the in vitro biotinylation tag (residue not stated); one N-glycan)
T1 construct: Disulfide-linked homodimer; also called biotinylated human VWF CK domain; human VWF CK domain construct
T1 chain: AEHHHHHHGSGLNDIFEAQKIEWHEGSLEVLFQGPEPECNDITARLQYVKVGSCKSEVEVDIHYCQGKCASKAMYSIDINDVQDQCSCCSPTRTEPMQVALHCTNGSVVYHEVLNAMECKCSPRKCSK

B1: 189_Lib4_scFv (scFv, not shown: small tags and cut ends)
scFv: QVQLQESGPGLVKPSQTLSLTCTVSGVTFSSYGWSWIRQPPGKGLEWIGYVDTSGSTDYNPSLKSRVTMSVDTSKNQFSLKVNSVTAADTAVYYCARTTYYYDSSGFARGWFDPWGQGTLVTVSSSGGSTITSYNVYYTKLSSSGTEIVMTQSPATLSLSPGERATLSCRASQSVPSSHLAWYQQKPGQAPRLLIYDATNRAAGIPARFSGSGSGTDFTLTISSLEPEDFAVYYCQQYDNWPSPSFGGGTKVEIK
B2: 3552_Lib8_scFv (scFv, not shown: small tags and cut ends)
scFv: EVQLVESGGGLVQPGRSLRLSCAASEFTFGDYDMHWVRQAPGKGLEWVSAISSSGSNRDYADSVEGRFTISRDNAKNSLYLQMNSLRAEDTAVYYCARDAWFGDAFDIWGQGTMVTVSSSGGSTITSYNVYYTKLSSSGTDIQMTQSPSSLSASVGDRVTITCRASESVSSWLAWYQQKPGKAPKLLIYGASTLEGGVPSRFSGSGSGTDFTLTISSLQPEDVATYYCQQSYSFPDFGGGTKVEIK
B3: 4035_Lib1_scFv (scFv, not shown: small tags and cut ends)
scFv: QVQLVQSGAEVKKPGASVKVSCKVSGYAFPSYGIHWVRQAPGKGLEWMGGISAFTGDTIYAQKFQGRVTMTEDTSTDTAYMELSSLKSEDTAVYYCASGPTNVLTGLMESAEYFQHWGQGTLVTVSSSGGSTITSYNVYYTKLSSSGTDIQMTQSPSSVSASVGDRVTITCRASQGISRDLAWYQQKPGKAPKLLIYGASGRATGVPSRFSGSGSGTDFTLTISSLQPEDFANYYCQQSYITPTTFGGGTKVEIK
B4: Lib4_P2_A3_scFv (scFv, not shown: small tags and cut ends)
scFv: QVQLQESGPGLVKPSQTLSLTCTVSGVSLSTSDYSWSWIRQPPGKGLEWIGYISPPGRSDYNPSLKSRVTMSVDTSKNQFSLKVNSVTAADTAVYYCARHSSSGWYSTYDFDSWGQGTMVTVSSSGGSTITSYNVYYTKLSSSGTEIVMTQSPATLSLSPGERATLSCRASQNIHSNLAWYQQKPGQAPRLLIYGATTRATGIPARFSGSGSGTDFTLTISSLEPEDFAVYYCQQSYTTPLTFGGGTKVEIK
B5: 487_Lib1_scFv (scFv, not shown: small tags and cut ends)
scFv: QVQLVQSGAEVKKPGASVKVSCKVSGYTFTSHIIHWVRQAPGKGLEWMGGMNPYSNKAIYAQKFQGRVTMTEDTSTDTAYMELSSLKSEDTAVYYCARDASDYGDYGYYYYYMDVWGKGTTVTVSSSGGSTITSYNVYYTKLSSSGTDIQMTQSPSSVSASVGDRVTITCRASQSIGDFLAWYQQKPGKAPKLLIYDASHLQTGVPSRFSGSGSGTDFTLTISSLQPEDFANYYCQQTSTIPPTFGGGTKVEIK
B6: Lib1_P1_G3_scFv (scFv, not shown: small tags and cut ends)
scFv: QVQLVQSGAEVKKPGASVKVSCKVSGYTSRQYIHWVRQAPGKGLEWMGWVTPIFGTTNYAQKFQGRVTMTEDTSTDTAYMELSSLKSEDTAVYYCAREWTGTTAFDIWGQGTLVTVSSSGGSTITSYNVYYTKLSSSGTDIQMTQSPSSVSASVGDRVTITCRASQDIGHYLAWYQQKPGKAPKLLIYAASNRASGVPSRFSGSGSGTDFTLTISSLQPEDFANYYCQQGYSAPYGFGGGTKVEIK
B7: 2738_Lib1_scFv (scFv, not shown: small tags and cut ends)
scFv: QVQLVQSGAEVKKPGASVKVSCKVSGYTLTDLPIHWVRQAPGKGLEWMGGINPFLGTTIYAQKFQGRVTMTEDTSTDTAYMELSSLKSEDTAVYYCARGVDMLATARDYYYMAIWGKGTTVTVSSSGGSTITSYNVYYTKLSSSGTDIQMTQSPSSVSASVGDRVTITCRASQSIGNDLAWYQQKPGKAPKLLIYGASMRATGVPSRFSGSGSGTDFTLTISSLQPEDFANYYCQQYASDPLTFGGGTKVEIK
B8: 4166_Lib4_scFv (scFv, not shown: small tags and cut ends)
scFv: QVQLQESGPGLVKPSQTLSLTCTVSGESFSGHFWSWIRQPPGKGLEWIGYISQSGRTDYNPSLKSRVTMSVDTSKNQFSLKVNSVTAADTAVYYCARTLPRIQLWSPRGAFDIWGQGTMVTVSSSGGSTITSYNVYYTKLSSSGTEIVMTQSPATLSLSPGERATLSCRASQSLGRSLAWYQQKPGQAPRLLIYDASHRATGIPARFSGSGSGTDFTLTISSLEPEDFAVYYCQQYVSYPLTFGGGTKVEIK
B9: Lib1_P1_A1_scFv (scFv, not shown: small tags and cut ends)
scFv: QVQLVQSGAEVKKPGASVKVSCKVSGDTLSNYAIHWVRQAPGKGLEWMGGINPNAGTTIYAQKFQGRVTMTEDTSTDTAYMELSSLKSEDTAVYYCARDSSSWSQFGYYYYYMDVWGKGTTVTVSSSGGSTITSYNVYYTKLSSSGTDIQMTQSPSSVSASVGDRVTITCRASQSIGDFLAWYQQKPGKAPKLLIYDASHLQTGVPSRFSGSGSGTDFTLTISSLQPEDFANYYCQQTSTIPPTFGGGTKVEIK
B10: Lib4_P2_B4_scFv (scFv, not shown: small tags and cut ends)
scFv: QVQLQESGPGLVKPSQTLSLTCTVSGASLGDQYWSWIRQPPGKGLEWIGYIHPSGDFDYNPSLKSRVTMSVDTSKNQFSLKVNSVTAADTAVYYCARHYSSSWYGTWYFDLWGRGTLVTVSSSGGSTITSYNVYYTKLSSSGTEIVMTQSPATLSLSPGERATLSCRASQNIGTNLAWYQQKPGQAPRLLIYDASVRAAGIPARFSGSGSGTDFTLTISSLEPEDFAVYYCQQSLTTPLTFGGGTKVEIK
B11: 96_Lib4_scFv (scFv, not shown: small tags and cut ends)
scFv: QVQLQESGPGLVKPSQTLSLTCTVSGESFSTSYWSWIRQPPGKGLEWIGYITHSGYTDYNPSLKSRVTMSVDTSKNQFSLKVNSVTAADTAVYYCARGGRFPFWYFDLWGRGSLVTVSSSGGSTITSYNVYYTKLSSSGTEIVMTQSPATLSLSPGERATLSCRASRSIGSNLAWYQQKPGQAPRLLIYGATTRATGIPARFSGSGSGTDFTLTISSLEPEDFAVYYCQQYKNDATFGGGTKVEIK
B12: 16_Lib8_scFv (scFv, not shown: small tags and cut ends)
scFv: EVQLVESGGGLVQPGRSLRLSCAASGFRFDEYDMHWVRQAPGKGLEWVSAISSESASIDYADSVEGRFTISRDNAKNSLYLQMNSLRAEDTAVYYCARDGAYGDYFDYWGQGTMVTVSSSGGSTITSYNVYYTKLSSSGTDIQMTQSPSSLSASVGDRVTITCRASQDIKSWLAWYQQKPGKAPKLLIYGASTLQSGVPSRFSGSGSGTDFTLTISSLQPEDVATYYCQQSYSAPYTFGGGTKVEIK
B13: 2301_Lib4_scFv (scFv, not shown: small tags and cut ends)
scFv: QVQLQESGPGLVKPSQTLSLTCTVSGASISTSDHSWSWIRQPPGKGLEWIGYIRDTGSTDYNPSLKSRVTMSVDTSKNQFSLKVNSVTAADTAVYYCAISSTERWKQSFGVDTEYFQHWGQGTLVTVSSSGGSTITSYNVYYTKLSSSGTEIVMTQSPATLSLSPGERATLSCRASRYVSTNLAWYQQKPGQAPRLLIYDAVTRAPGIPARFSGSGSGTDFTLTISSLEPEDFAVYYCQQYHSLPLIFGGGTKVEIK
B14: 256_Lib8_scFv (scFv, not shown: small tags and cut ends)
scFv: EVQLVESGGGLVQPGRSLRLSCAASGFTVSSNAMHWVRQAPGKGLEWVSAIGTFADTDYADSVEGRFTISRDNAKNSLYLQMNSLRAEDTAVYYCAREGAAAGTNFDYWGQGTLVTVSSSGGSTITSYNVYYTKLSSSGTDIQMTQSPSSLSASVGDRVTITCRASQGIRSYLAWYQQKPGKAPKLLIYGASTLEGGVPSRFSGSGSGTDFTLTISSLQPEDVATYYCQQSYSTPPKFGGGTKVEIK
B15: 4029_Lib1_scFv (scFv, not shown: small tags and cut ends)
scFv: QVQLVQSGAEVKKPGASVKVSCKVSGYPFTSSGIHWVRQAPGKGLEWMGGVIPLFGTANYAQKFQGRVTMTEDTSTDTAYMELSSLKSEDTAVYYCARIRVSSGWYRDYGMDVWGQGTTVTVSSSGGSTITSYNVYYTKLSSSGTDIQMTQSPSSVSASVGDRVTITCRASQSIGDFLAWYQQKPGKAPKLLIYDASHLQTGVPSRFSGSGSGTDFTLTISSLQPEDFANYYCQQTSTIPPTFGGGTKVEIK
B16: Lib1_P1_A2_scFv (scFv, not shown: small tags and cut ends)
scFv: QVQLVQSGAEVKKPGASVKVSCKVSEGTLSRHYINWVRQAPGKGLEWMGGINAKSGATIYAQKFQGRVTMTEDTSTDTAYMELSSLKSEDTAVYYCAKDTGDDILTDYSDAFDIWGQGTMVTVSSSGGSTITSYNVYYTKLSSSGTDIQMTQSPSSVSASVGDRVTITCRASQNIGTSLAWYQQKPGKAPKLLIYGASNLESGVPSRFSGSGSGTDFTLTISSLQPEDFANYYCLQYNDWPPLYSFGGGTKVEIK
B17: Lib6_P3_B9_scFv (scFv, not shown: small tags and cut ends)
scFv: EVQLVQSGAEVKKPGASVKVSCKASGDTFSSHVISWVRQAPGQGLEWMGGINPRTGTTIYAQKLQGRGTMTTDPSTSTAYMELRSLRSDDTAVYYCARTRPWAGLDVWGQGTTVTVSSSGGSTITSYNVYYTKLSSSGTESALTQPASVSGSPGQSITISCTGTNIEYKGVSWYQQHPGKAPKLMIYGVDKRPSGVSNRFSGSKSGNTASLTISGLQAEDEADYYCQAWGTSTAIFGGGTKLTVL
B18: 3964_Lib4_scFv (scFv, not shown: small tags and cut ends)
scFv: QVQLQESGPGLVKPSQTLSLTCTVSGASISTHSWSWIRQPPGKGLEWIGYINPSGDIDYNPSLKSRVTMSVDTSKNQFSLKVNSVTAADTAVYYCARGRTGFDSSGFVVGAFDIWGQGTMVTVSSSGGSTITSYNVYYTKLSSSGTEIVMTQSPATLSLSPGERATLSCRASQNVNDNLAWYQQKPGQAPRLLIYDASTRPTGIPARFSGSGSGTDFTLTISSLEPEDFAVYYCQQYLTIPRTFGGGTKVEIK
B19: Lib4_P2_A1_scFv (scFv, not shown: small tags and cut ends)
scFv: QVQLQESGPGLVKPSQTLSLTCTVSGASFGDNYWSWIRQPPGKGLEWIGYIDTSGSSDYNPSLKSRVTMSVDTSKNQFSLKVNSVTAADTAVYYCARVSWGYYAMDVWGQGTTVTVSSSGGSTITSYNVYYTKLSSSGTEIVMTQSPATLSLSPGERATLSCRASQGISGRLAWYQQKPGQAPRLLIYDVSTRATGIPARFSGSGSGTDFTLTISSLEPEDFAVYYCQQYDTSAPLTFGGGTKVEIK
B20: Lib1_P1_E9_scFv (scFv, not shown: small tags and cut ends)
scFv: QVQLVQSGAEVKKPGASVKVSCKVSGYTFTSHIIHWVRQAPGKGLEWMGGMNPYSNKAIYAQKFQGRVTMTEDTSTDTAYMELSSLKSEDTAVYYCARDASDYGDYGYYYYYMDVWGKGTTVTVSSSGGSTITSYNVYYTKLSSSGTDIQMTQSPSSVSASVGDRVTITCRASQYIGNDLAWYQQKPGKAPKLLIYEASQRPSGVPSRFSGSGSGTDFTLTISSLQPEDFANYYCQQQYNYPLTFGGGTKVEIK

Target: T1, biotinylated human VWF cysteine knot …
Test: SPR, scFv captured on anti-SV5, pH 7.4
Description: Briefly, a sensor chip was activated and coupled with an anti-SV5 mouse monoclonal antibody using amine coupling. The soluble scFvs in crude yeast supernatants were printed on the anti-SV5 lawn. […] From the measured association (kₒₙ) and dissociation (koff) rate constants, an apparent equilibrium dissociation constant (Kd=koff/kₒₙ) was estimated. Due to the dimeric state of the CK construct and consequent possibility for simultaneous binding of captured scFv to both monomers in the CK dimer, the SPR setup was expected to overestimate the binding affinity.

Binding result, binds:
B1
B2
B3
B4
B5
B6
B7
B8
B9
B10
B11
B12
B13
B14
B15
B16
B17
B18
B19
B20
